B1: YidC23C labelled with Atto520 (YidC W23C, single cysteine) (natural protein)
chain: MDSQRNLLVIALLFVSFMIWQACEQDKNPQPQAQQTTQTTTTAAGSAADQGVPASGQGKLISVKTDVLDLTINTRGGDVEQALLPAYPKELNSTQPFQLLETSPQFIYQAQSGLTGRDGPDNPANGPRPLYNVEKDAYVLAEGQNELQVPMTYTDAAGNTFTKTFVLKRGDYAVNVNYNVQNAGEKPLEISSFGQLKQSITLPPHLDTGSSNFALHTFRGAAYSTPDEKYEKYKFDTIADNENLNISSKGGWVAMLQQYFATAWIPHNDGTNNFYTANLGNGIAAIGYKSQPVLVQPGQTGAMNSTLWVGPEIQDKMAAVAPHLDLTVDYGWLWFISQPLFKLLKWIHSFVGNWGFSIIIITFIVRGIMYPLTKAQYTSMAKMRMLQPKIQAMRERLGDDKQRISQEMMALYKAEKVNPLGGSFPLLIQMPIFLALYYMLMGSVELRQAPFALWIHDLSAQDPYYILPILMGVTMFFIQKMSPTTVTDPMQQKIMTFMPVIFTVFFLWFPSGLVLYYIVSNLVTIIQQQLIYRGLEKRGLHSREKKKS
modifications: Atto520 (maleimide dye) on cysteine 23; labelling efficiency 18%
B2: SecYEG with SecY142C labelled with Atto647N (complex)
chain 1: MAKQPGLDFQSAKGGLGELKRRLLFVIGALIVFRIGSFIPIPGIDAAVLAKLLEQQRGTIIEMFNMFSGGALSRASIFALGIMPYISASIIIQLLTVVHPTLAEIKKEGESGRRKISQYTRYGTLVLAIFQSIGIATGLPNCPGMQGLVINPGFAFYFTAVVSLVTGTMFLMWLGEQITERGIGNGISIIIFAGIVAGLPPAIAHTIEQARQGDLHFLVLLLVAVLVFAVTFFVVFVERGQRRIVVNYAKRQQGRRVYAAQSTHLPLKVNMAGVIPAIFASSIILFPATIASWFGGGTGWNWLTTISLYLQPGQPLYVLLYASAIIFFSFFYTALVFNPRETADNLKKSGAFVPGIRPGEQTAKYIDKVMTRLTLVGALYITFISLIPEFMRDAMKVPFYFGGTSLLIVVVVIMDFMAQVQTLMMSSQYESALKKANLKGYGR
chain 2: MSANTEAQGSGRGLEAMKWVVVVALLLVAIVGNYLYRDIMLPLRALAVVILIAAAGGVALLTTKGKATVAFAREARTEVRKVIWPTRQETLHTTLIVAAVTAVMSLILWGLDGILVRLVSFITGLRF
chain 3: MYEALLVVFLIVAIGLVGLIMLQQGKGADMGASFGAGASATLFGSSGSGNFMTRMTALLATLFFIISLVLGNINSNKTNKGSEWENLSAPAKTEQTQPAAPAKPTSDIPN
modifications: Atto647N (maleimide dye) on cysteine 142; labelling efficiency 24%

Assays:
[1] = biological target: B2; experiment: FRET or BRET; ensemble FRET in detergent: 0.55 µM YidC-Atto520 (donor) in 0.03% dodecyl maltoside titrated with increasing SecYEG-Atto647N (acceptor); excitation 516 nm, donor at 538 nm, acceptor at 669 nm; buffer controls for dilution; Kd by Lineweaver-Burk linearisation; conditions: both partners purified
[2] = biological target: B1; experiment: as above; conditions: both partners purified

Kd [1] [nM]	stoichiometry N [2]	Binder
27 ± 10	–	B1
–	1	B2

From article PMC7886851 (Scientific Reports, 2021)
